Target: T1, Juno (UniProt Q9EQF4 20-222)
T1 chain: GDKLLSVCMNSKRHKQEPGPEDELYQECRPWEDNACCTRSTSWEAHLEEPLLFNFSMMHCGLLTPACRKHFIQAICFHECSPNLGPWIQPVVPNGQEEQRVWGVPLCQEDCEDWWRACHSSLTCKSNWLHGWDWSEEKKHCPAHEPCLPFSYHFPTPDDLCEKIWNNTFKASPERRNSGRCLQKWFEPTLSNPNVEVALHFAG
Assay: MST

B1: Izumo1 ectodomain (domain or fragment)
chain: CIKCDQFVTDALKTFENTYLNDHLPHDIHKNVMRMVNHEVSSFGVVTSAEDSYLGAVDENTLEQATWSFLKDLKRITDSDLKGELFIKELLWMLRHQKDIFNNLARQFQKEVLCPNKCGVMSQTLIWCLKCEKQLHICRKSLDCGERHIEVHRSEDLVLDCLLSWHRASKGLTDYSFYRVWENSSETLIAKGKEPYLTKSMVGPEDAGNYRCVLDTINQGHATVIRYDVTVLPPKHSEENQPPNIITQEEHETPVHVTPQTPPGQEPESELYPELHPELYPELIPTVAQNPEKKMKTR
modifications: N-acetylglucosamine attached to N204 (seen in the crystal structure)
Kd: 620 nM
